US20130101595A1 (AbbVie / Abbott, published 2013)
Changes are numbered by the printed parent chain. Names and notes keep the numbering of the source. Values belong to the binder of their own block, whether it stands above or below them.

Tests used:
[1] = target: T1, recombinant human IL-18 (rhIL-18) (human, UniProt Q14116 37-193, biotinylated (D-biotinyl-epsilon-aminocaproic acid NHS ester, 2:1 molar ratio of biotin to rhIL-18) in the BIAcore assay; not said to be biotinylated in the KG-1 assay); experiment: cell-based or functional assay
[2] = target: T2, IL-18 peptide NRPLFEDMTDSDCR (SEQ ID NO: 36) (human); experiment: overlapping IL-18 peptide panel
T2 peptide: NRPLFEDMTDSDCR

[3] = target: T3, IL-18 peptide PLFEDMTDSDCRDNA (SEQ ID NO: 1) (human); experiment: told in a figure legend; 2E1 selected by phage display on an IL-18 peptide epitope
T3 peptide: PLFEDMTDSDCRDNA

[4] = target: T1, recombinant human IL-18 (rhIL-18); experiment: SPR (BIAcore), biotinylated rhIL-18 on streptavidin chip, antibody in solution
Procedure: Real-time binding interactions between ligand (biotinylated recombinant human IL-18 (rhIL-18) immobilized on a biosensor matrix) and analyte (antibodies in solution) were measured by surface plasmon resonance (SPR) using the BIAcore system (Pharmacia Biosensor, Piscataway, N.J.). The system utilizes the optical properties of SPR to detect alterations in protein concentrations within a dextran biosensor matrix. Proteins are covalently bound to the dextran matrix at known concentrations. Antibodies are injected through the dextran matrix and specific binding between injected antibodies and immobilized ligand results in an increased matrix protein concentration and resultant change in the SPR signal.
Biotinylated rhIL-18 to be immobilized on the matrix via streptavidin was diluted in PBS running buffer (Gibco Cat. No. 14190-144, Gibco BRL, Grand Island, N.Y.) supplemented with 0.05% (BIAcore) surfactant P20 (Pharmacia BR-1000-54, Pharmacia Biosensor, Piscataway, N.J.). To determine the capacity of rhIL-18-specific antibodies to bind immobilized rhIL-18, a binding assay was conducted as follows. Aliquots of biotinylated rhIL-18 (25 nM; 10 μl aliquots) were injected through the streptavidin-coupled dextran matrix at a flow rate of 5 μl/min. Before injection of the protein and immediately afterward, PBS buffer alone flowed through each flow cell. The net difference in signal between baseline and approximately 30 sec. after completion of biotinylated rhIL-18 injection was taken to represent the binding value. Direct rhIL-18-specific antibody binding to immobilized biotinylated rhIL-18 was measured. Antibodies (20 μg/ml) were diluted in PBS running buffer and 25 μl aliquots were injected through the immobilized protein matrices at a flow rate of 5 μl/min. Prior to injection of antibody, and immediately afterwards, PBS buffer alone flowed through each flow cell. The net difference in baseline signal and signal after completion of antibody injection was taken to represent the binding value of the particular sample. Biosensor matrices were regenerated using 100 mM HCl before injection of the next sample.

[5] = target: T1, recombinant human IL-18 (rhIL-18); experiment: cell-based or functional assay; remark: listed apart in the source
[6] = target: T1, recombinant human IL-18 (rhIL-18); experiment: SPR (BIAcore), biotinylated rhIL-18, scFv
[7] = target: T1, recombinant human IL-18 (rhIL-18); experiment: SPR (BIAcore), biotinylated rhIL-18 on streptavidin chip

- IC50 Value, KG-1 cell-based IL-18 neutralization assay (hIFN-gamma) [1]: 33 nM
- binding result [2]: binds
- binding result [3]: binds
- kon [4]: 2600 M⁻¹ s⁻¹
B1: 2E1 (parent) ScFv (scFv, V domains shown)
VH: QVQLVQSGAEVKKPGASMKVSCKTSGYTFTGYYIHWVRQAHGQGFEWIGRLNPTTGDANFAEKFQGRVALTRDTSISTAYLQLDSLKSDDTAVYYCAGKEGAWGQGTLVTVSS
VL: SSELTQDPAVSVALGQTVRITCQGDSLRHFYPNWYQQKPGQAPVLVIYGKNNRPSGIPDRFSGSGSGNTGSLTITGAQAEDEADYYCGSRDSSGIHVVFGGGTKVTVLG
notes: Tested as single-chain Fv; also called single chain Fv version of antibody 2E1; 2E1 single chain antibody

- fold improvement over the parent antibody 2E1, KG-1 cell-based assay [5]: > 10 fold
- IC50 Value, KG-1 cell-based IL-18 neutralization assay (hIFN-gamma) [1]: 3 nM
- fold improvement over the parent antibody 2E1 [6]: > 10 fold
- fold improvement over the parent antibody 2E1 (BIAcore analysis) [7]: > 10 fold
- Kd [4]: 23 nM
- koff [4]: 6.82e-05 s⁻¹
- kon [4]: 2700 M⁻¹ s⁻¹
B2: 2E1 mutant L34S + H53R (2E1RS) (scFv, V domains shown)
VH: B1 VH with T54R
VL: B1 VL with N33S

- IC50 Value, KG-1 cell-based IL-18 neutralization assay (hIFN-gamma) [1]: 2.8 nM
- koff [4]: 6.18e-05 s⁻¹
B3: 2E1 mutant L34S + H53R + H58Q (scFv, V domains shown)
VH: B1 VH with T54R, N59Q
VL: B1 VL with N33S

- IC50 Value, KG-1 cell-based IL-18 neutralization assay (hIFN-gamma) [1]: 6.7 nM
- koff [4]: 5.28e-05 s⁻¹
B4: 2E1 mutant L34S + H53Y (scFv, V domains shown)
VH: B1 VH with T54Y
VL: B1 VL with N33S

- IC50 Value, KG-1 cell-based IL-18 neutralization assay (hIFN-gamma) [1]: 0.9 nM
B5: 2E1 (parent) IgG (antibody, V domains shown)
VH: B1 VH
VL: B1 VL

- IC50 Value, KG-1 cell-based IL-18 neutralization assay (hIFN-gamma) [1]: 15 nM
- koff [4]: 0.000169 s⁻¹
B6: 2E1 mutant L34S (scFv, V domains shown)
VH: B1 VH
VL: B1 VL with N33S

- IC50 Value, KG-1 cell-based IL-18 neutralization assay (hIFN-gamma) [1]: 25 nM
- koff [4]: 0.00234 s⁻¹
B7: 2E1 mutant H53R (scFv, V domains shown)
VH: B1 VH with T54R
VL: B1 VL
